This is an account of results in patent publication US8304206B2, “Mass spectrometry assays for identifying compounds that activate deacetylases” (Sirtris Pharmaceuticals, Inc., priority 2005, dated 2012).

Where “and” joins values, the source holds several entries; their conditions need not be identical. Identical values can stand only once.

Substrate in the data set: CCCC[C@H](NC(=O)[C@H](CCCCNC(C)=O)NC(=O)[C@H](CO)NC(=O)[C@H](Cc1c[nH]cn1)NC(=O)[C@H](CO)NC(=O)[C@H](CO)NC(=O)[C@@H](NC(=O)[C@H](CO)NC(=O)[C@H](CCC(N)=O)NC(=O)CNC(=O)[C@H](CCCCNC(=O)CCCC[C@@H]1SC[C@@H]2NC(=O)N[C@@H]21)NC(=O)[C@H](CCC(=O)O)NC(=O)[C@H](CCC(=O)O)NC(C)=O)[C@@H](C)O)C(=O)N[C@@H](CO)C(=O)N[C@H](C(=O)N[C@@H](CCC(=O)O)C(=O)NCC(=O)N[C@@H](CCCCNC(=O)c1ccc2c(c1)C(=O)OC21c2ccc(N(C)C)cc2Oc2cc(N(C)C)ccc21)C(=O)N[C@@H](CCC(=O)O)C(=O)N[C@@H](CCC(=O)O)C(N)=O)[C@@H](C)O
Put plainly: SIRT1 Km for Acetylated Peptide Substrate (mass spectrometry). Format: biochemical, human. The settings on record: pH 8.0, 25.0 °C. Here is the method: Briefly, 1 μL of vehicle (DMSO) was added to each well of a Costar 96-well clear round bottom assay plate and 10 μL of 10% formic acid was added to all of the wells in row A. The Acetylated Peptide Substrate was serially diluted. Wells A2, A3, A4, A5, A6, A7, A8, A9, A10, A11 and A12 of a Costar 2 mL 96 well Assay Block were filled with 600 μL of Substrate Dilution Working Solution (SDWS; 4 mM NAD^+, 50 mM Tris HCl pH 8.0, 137 mM NaCl, 2.7 mM KCl, 1 mM MgCl2, 5 mM DTT, and 0.05% BSA). […] The APSTD-WS was serially diluted into SDWS by transferring 600 μL of APSTD-WS from well A1 to […] of the Costar 2 mL 96 well Assay Block. The solution was mixed 5 times and the process was continued by moving across row A, until well A12 was reached.
The Enzyme Working Solution (20 nM SIRT1, 50 mM Tris HCl pH 8.0, 137 mM NaCl, 2.7 mM KCl, 1 mM MgCl2, 5 mM DTT, 0.05% BSA) was prepared. […]
At 0, 3, 6, 9, 12, 15, 20, and 25 minutes, the reaction was stopped with 10% formic acid and the conversion of substrate to product was determined by mass spectrometry.
SIRT1 enzyme activity at 12 concentrations of SIRT1 Acetylated Peptide Substrate was monitored by comparing the percent conversion of Acetylated Peptide Substrate to Deacetylated Peptide Product over time. The reaction rate at each substrate concentration was determined as the slope of the product formation versus time plot in the linear range. […]

B1: SIRT1 (Homo sapiens) (protein)
chain: MADEAALALQPGGSPSAAGADREAASSPAGEPLRKRPRRDGPGLERSPGEPGGAAPEREVPAAARGCPGAAAAALWREAEAEAAAAGGEQEAQATAAAGEGDNGPGLQGPSREPPLADNLYDEDDDDEGEEEEEAAAAAIGYRDNLLFGDEIITNGFHSCESDEEDRASHASSSDWTPRPRIGPYTFVQQHLMIGTDPRTILKDLLPETIPPPELDDMTLWQIVINILSEPPKRKKRKDINTIEDAVKLLQECKKIIVLTGAGVSVSCGIPDFRSRDGIYARLAVDFPDLPDPQAMFDIEYFRKDPRPFFKFAKEIYPGQFQPSLCHKFIALSDKEGKLLRNYTQNIDTLEQVAGIQRIIQCHGSFATASCLICKYKVDCEAVRGDIFNQVVPRCPRCPADEPLAIMKPEIVFFGENLPEQFHRAMKYDKDEVDLLIVIGSSLKVRPVALIPSSIPHEVPQILINREPLPHLHFDVELLGDCDVIINELCHRLGGEYAKLCCNPVKLSEITEKPPRTQKELAYLSELPPTPLHVSEDSSSPERTSPPDSSVIVTLLDQAAKSNDDLDVSESKGCMEEKPQEVQTSRNVESIAEQMENPDLKNVGSSTGEKNERTSVAGTVRKCWPNRVAKEQISRRLDGNQYLFLPPNRYIFHGAEVYSDSEDDVLSSSSCGSNSDSGTCQSPSLEEPMEDESEIEEFYNGLEDEPDVPERAGGAGFGTDGDDQEAINEAISVKQEVTDMNYPSNKS
notes: The SirT1 gene was cloned into a T7-promoter containing vector and transformed into BL21(DE3); His-tag (N); made in house; host or cells: E. coli BL21(DE3)
Take B1: the Km reads like this: (other: Sirt1, Mass Spectrometry, present invention) 11.6 µM; (other: single replicate plates, 2 mM NAD+, 1% DMSO) 11.2 µM and 11.9 µM.
